This assay concerns the target monomeric (SARS-CoV-2 S ectodomain monomer) (SARS-CoV-2). Description: ELISA, coated monomeric S ectodomain [cont'd]. (ELISA stands for enzyme-linked immunosorbent assay.)

As a reminder, the EC50 is the midpoint of the concentration-response curve. Read a low EC50 as higher potency in that assay.

B1: MnC4t1p1_A10 (antibody, V domains shown)
VH: QLQVQESGPGLVKPSETLSLTCTVSGASISSNHYFWGWIRQPPGKGLAWIGSMHYSGSTYYNPSLKSRVTISVDTSKNQLSLKLSSVTAADTAVYYCARGVNYYDRNGYYRNDGFDIRGQGTMVTVSS
VL: DIQMTQSPSSLSASVGDRVTITCRASQGIRNDLGWYEQKPGKAPKRLIYAASSLESGVPSRFSGSGSGTEFTLTISSLQPEDFATYYCLQHNTYPFTFGPGTRVDIK
In the case of B1, the EC50 was less than 100 µg/mL.

B2: MnC4t2p1_D10 (antibody, V domains shown)
VH: QLQVQESGPGLVKPSETLSLTCTVSGASISSNHYFWGWIRQPPGKGLAWIGSMHYSGSTYYNPSLKSRVTISVDTSKNQLSLKLSSVTAADTAVYYCARGVNYYDRNGYYRNDGFDIRGQGTMVTVSS
VL: DIQMTQSPSSLSASVGDRVTITCRASQGIRNDLGWYEQKPGKAPKRLIYAASSLESGVPSRFSGSGSGTEFTLTISSLQPEDFATYYCLQHNTYPFTFGPGTRVDIK
Molecule B2 had an EC50 of less than 100 µg/mL.

B3: MnC4t2p1_F5 (antibody, V domains shown)
VH: QLQVQESGPGLVKPSETLSLTCTVSGASISSNHYFWGWIRQPPGKGLAWIGSMHYSGSTYYNPSLKSRVTISVDTSKNQLSLKLSSVTAADTAVYYCARGVNYYDRNGYYRNDGFDIRGQGTMVTVSS
VL: DIQMTQSPSSLSASVGDRVTITCRASQGIRNDLGWYEQKPGKAPKRLIYAASSLESGVPSRFSGSGSGTEFTLTISSLQPEDFATYYCLQHNTYPFTFGPGTRVDIK
The molecule B3 came in with an EC50 of less than 100 µg/mL.

The values above are taken from patent US20210371503A1.
